For one series, the target named is T1, BamHI (UniProt P23940 P23940:1-213).
T1 sequence: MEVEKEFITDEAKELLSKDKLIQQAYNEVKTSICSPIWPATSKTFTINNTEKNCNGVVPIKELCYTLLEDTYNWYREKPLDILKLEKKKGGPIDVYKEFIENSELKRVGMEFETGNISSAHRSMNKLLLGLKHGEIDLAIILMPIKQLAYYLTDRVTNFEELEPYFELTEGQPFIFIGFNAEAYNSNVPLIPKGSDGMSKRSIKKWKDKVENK
Description: cleavage_in_vitro; complementation rate 47.16 to 114.07 mAU/min after BamHI; 37 C, 40 min. The note with it: chain copies: 2; 24 bp duplex within circular ssDNA. From the text: Complementation Activity of ED4-BP-1 Before and After Hybridization To Target Nucleic Acid In order to determine whether an ED-nucleic acid conjugate would be useful as a probe for the complementation activity detection of specific nucleic acid sequences, a conjugate was made of ED4 and BP-1. BP-1 is a single-stranded DNA oligonucleotide 24 bases long (SEQ ID NO:1, FIG. 2). The BP-1 sequence is complementary to the multiple cloning site region of the single-stranded DNA from the bacteriophage M13 mp18 (SEQ ID NO:2, FIG. 3). The viral DNA which is about 7250 bases in length was used as a model target nucleic acid. 2.4×10^-10 mol of ED4-BP-1 conjugate was incubated with and without 2.4×10^-9 mol of M13 mp18 DNA at 55° C. for 10 minutes. EA (20 U/test) and CPRG (2.0 mg/ml final) were then added and the mixture incubated at 37° C. for 4 minutes. The rate of increase in A$574$ was measured per minute between 4 and 6 minutes. The rates of complementation were 80.73 and 47.16 mAU/min without and with target M13 DNA mp18 DNA, respectively. Therefore complementation was reduced approximately 42% (FIG. 4) by hybridization with the target nucleic acid.
ED4-BP-1 was hybridized to M13 mp18 for 10 min at 55° C. […] The complementation efficiency of the ED4-BP-1/M13 mp18 complex before and after digestion with Bam HI was measured. The rate of increase in A574 was measured per minute as described above. […]

For series [1], the target named is T2, Nuclease P1 (UniProt P24289 P24289:1-270). Put plainly: cleavage_in_vitro; 183.54 to 467.93 mAU/min after digestion; 20 mM Na acetate pH 5.3, 4 mM Mg acetate, 37 C. The note with it: tags: Bethesda Research Laboratories.
In series [2] the target is T2, Nuclease P1. Description: cleavage_in_vitro; almost 5-fold complementation increase; 20 mM Na acetate pH 5.3, 4 mM Mg acetate, 37 C, 16.5 min. The note with it: tags: Bethesda Research Laboratories. As to the method:
ED4-$T20$ was incubated at 37° C. for 16.5 minutes with various amounts of nuclease, P1 (Bethesda Research Laboratories), in 20 mM Na acetate pH 5.3, 4 mM Mg acetate. At the end of the incubation period, EA and the substrate, CPRG, were added in 150 mM Na phosphate, pH 7.2, 400 mM NaCl, 10 mM EGTA, 0.05% Tween 20 and 10 mM methionine. The rate of product formation was measured at 574 nm in mAU/min. The results (FIG. 1) indicate that the complementation activity of ED4-$T20$ can be increased by digestion of the conjugate with nuclease. An almost 5-fold increase in activity is seen between the use of no nuclease and highest concentration […] conditions.

Drawing on US5795718, “Detection of complementary nucleotide sequences” (Boehringer Mannheim Corporation), this text covers activity for 3 molecules.

T2 sequence (P24289 whole entry, one chain of several): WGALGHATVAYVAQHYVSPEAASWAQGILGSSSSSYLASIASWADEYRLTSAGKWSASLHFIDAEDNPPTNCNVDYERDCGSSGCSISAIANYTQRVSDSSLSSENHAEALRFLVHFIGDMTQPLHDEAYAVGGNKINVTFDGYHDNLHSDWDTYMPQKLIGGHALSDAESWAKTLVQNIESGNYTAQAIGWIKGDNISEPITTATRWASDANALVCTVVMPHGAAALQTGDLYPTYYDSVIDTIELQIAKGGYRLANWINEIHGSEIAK

B1: ED4-BP-1/M13 mp18 hybrid (dsDNA)
DNA 1: GAGGATCCCCGGGTACCGAGCTCG
DNA 2: TGATTACGAATTCGAGCTCGGTACCCGGGGATCCTCTAGAGTCGA
modifications: 5' amine linker (3 or 6 carbons) SMCC-conjugated to ED4 peptide on BP-1
B1 registered an activity with BamHI of 2.4 fold.

B2: ED4-BP-1 (ssDNA)
DNA: GAGGATCCCCGGGTACCGAGCTCG
modifications: 5' amine linker SMCC-conjugated to ED4 peptide
Consider B2, for which, in the series with Nuclease P1 [1], the activity was ~2.5 fold.

B3: ED4-T20 (ssDNA)
DNA: TTTTTTTTTTTTTTTTTTTT
modifications: 5' amine linker SMCC-conjugated to ED4 peptide
With B3, the activity with Nuclease P1 [2] was ~5 fold.
